Assay results published in PMC5843810 (EJNMMI Radiopharmacy and Chemistry, 2016).
Bridges are numbered along the chain shown (N, C = ends). [ ]: non-standard residue; d: D form. Ahx = NCCCCCC(=O)O; βAla = NCCC(=O)O

Experiments:
[1] = target: T1, MC1R (mouse (endogenous in B16/F10), UniProt Q01727 1-315); experiment: radioligand binding; MC1R binding affinity (Ki) of the unlabelled peptides determined in B16/F10 melanoma cells; the competing ligand is not named; conditions: one partner purified
T1 construct: also called MCR1R

[2] = target: T1, MC1R; experiment: radioligand binding; receptor affinity (Kd) of the 99mTc-labelled peptide; B16/F10 melanoma cells are the only cells named; conditions: one partner purified

T1 sequence (Q01727 whole entry): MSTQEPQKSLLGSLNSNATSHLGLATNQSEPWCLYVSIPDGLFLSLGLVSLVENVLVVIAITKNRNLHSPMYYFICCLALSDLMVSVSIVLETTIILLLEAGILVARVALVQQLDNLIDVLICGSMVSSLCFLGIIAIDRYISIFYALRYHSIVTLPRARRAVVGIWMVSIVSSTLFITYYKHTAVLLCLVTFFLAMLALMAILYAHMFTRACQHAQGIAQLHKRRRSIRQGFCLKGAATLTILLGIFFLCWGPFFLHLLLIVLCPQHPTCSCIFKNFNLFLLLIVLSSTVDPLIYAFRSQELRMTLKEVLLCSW

Binder | Ki [1] | Kd [2]
CXXXDHFRWG (Ahx at 2, βAla at 3, Nle at 4 (each written X); D-Phe at 7; C-terminal amide) [NAP-NS1, linear H-Cys-Ahx-βAla-Nle-Asp-His-D-Phe-Arg-Trp-Gly-NH2] | 0.9 ± 0.3 nM | –
CXXXDHFRWG (Ahx at 2, βAla at 3, Nle at 4 (each written X); D-Phe at 7; C-terminal amide; [99mTc(N)(PNP3)] label (PNP3 = N,N-bis(dimethoxypropylphosphinoethyl)methoxyethylamine)) [[99mTc(N)(NAP-NS1)(PNP3)]+] | – | 7.1 ± 0.5 nM
H-C[Ahx][βAla]KEH[dF]RWERPV-NH2 (lactam 4-10; SMILES CC(C)[C@H](NC(=O)[C@@H]1CCCN1C(=O)[C@H](CCCNC(=N)N)NC(=O)[C@@H]1CCC(=O)NCCCC[C@H](NC(=O)CCNC(=O)CCCCCNC(=O)[C@@H](N)CS)C(=O)N[C@@H](CCC(=O)O)C(=O)N[C@@H](Cc2c[nH]cn2)C(=O)N[C@H](Cc2ccccc2)C(=O)N[C@@H](CCCNC(=N)N)C(=O)N[C@@H](Cc2c[nH]c3ccccc23)C(=O)N1)C(N)=O) | 7.1 ± 2.4 nM | –
